Results published in paper PMC4867895.

Substrate: O=C(O)CO
Assay: purified protein
Settings: co-substrate O2; recombinant His-tagged enzyme

B1: CmGOX (Cyanidioschyzon merolae strain 10D) (protein)
chain: MVEKPAVNPATQPLNLAEYHLFAKARLPAMVYGYYASGADDEQTLRDNEEAFRRLRFRPRVLIDVSRVDITKQVMGIDLSFPLMVAPTAMQRMAHPEGELATARAVARIGTVMGLSSWATTSLEDVAAHVPGLPKFFQLYVYKDRAITERLVRRAERAGFRAIALTVDTPQLGRREADIRNQFQLPPHLSLANFADMKDFAQVKGGAGASGLASYVASLIDASLNWNDIAWLKSITRLPILLKGVVTAEDAQRALQYGADGIWISNHGARQLDGVTATIDCLEEVAQSVRGRIPVFIDSGVRRGTDVVKALALGADAVLIGRPIVWGLAVDGEEGVYRLLSLLKDEFKLAMQLCGCQKVSDIRRDLVVRDAFAPYDVRQMLSVKMQSKL
B1 was tested, and the Km was 0.9 ± 0.2 mM.
